Source: patent US6528620B1, “Sid-polyamide fusions: a potent method of regulating gene expression” (University of Utah Research Foundation, priority 1999, dated 2003)
Where no end group is shown, it is not given here.

What was measured:
[1] = target: VP16PAH2 (amino acids 251-404 of mSin3A encoding the PAH2 domain fused to the VP16 activation domain) (UniProt Q60520); test: directed yeast two-hybrid assay (LexA-SID with VP16PAH2, beta-galactosidase)
PAH2 domain of mSin3A = target: T1, PAH2 domain of mSin3A (Mus musculus, UniProt Q60520); test: Directed two-hybrid assay (LexA-SID fusions with VP16PAH2, quantitative β-galactosidase); type: cell-based; details: for interaction with PAH2 (relative β-galactosidase activity): LexA fusion with VP16PAH2 in S. cerevisiae strain L40; for affinity for PAH2 relative to wild-type SID 8-20: fold higher
T1 construct: expressed in transfected cells; host or cells: S. cerevisiae strain L40
T1 sequence (Q60520 251-404): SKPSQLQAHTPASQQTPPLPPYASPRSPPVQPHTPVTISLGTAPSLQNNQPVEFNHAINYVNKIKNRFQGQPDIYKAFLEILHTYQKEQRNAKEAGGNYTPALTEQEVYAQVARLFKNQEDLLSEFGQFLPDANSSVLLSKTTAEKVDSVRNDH
Source text: Cloning and Interaction Assays—Fusions to the LexA DNA binding domain were made either by polymerase chain reaction amplifying SID 1-57 and SID 1-27 using pSPMad1 or pSPMad1 (L12P/A16P) (Ayer et al., Cell 80:767-776 (1995)) as template or by inserting a double-stranded oligonucleotide cassette encoding the various SID constructs between the EcoRI and BamH1 sites of pBTM116. Hollenberg et al., Mol. Cell. Biol. 15:3813-3822 (1995). Each construct was verified by sequencing. The different LexA fusion constructs and VP16PAH2 (Ayer et al., Cell 80:767-776 (1995)) were introduced into the S. cerevisiae strain L40 by lithium acetate transformation. Ausubel et al. eds., Current Protocols in Molecular Biology, John Wiley & Sons, Inc., New York (1995). Quantitative β-galactosidase assays were performed from three independent colonies in triplicate from liquid cultures. Ausubel et al. eds., Current Protocols in Molecular Biology, John Wiley & Sons, Inc., New York (1995). For each measurement the standard deviation was less than 10%.
We have used a directed two-hybrid assay to measure the relative affinity of the SID and various SID mutants for PAH2. Briefly, SID molecules based on the sequence of human Mad1 were fused to the DNA binding domain of bacterial LexA, and the PAH2 domain of mSin3A was fused to the transcriptional activation domain of VP16. Following introduction into the S. cerevisiae strain L40, relative affinity was measured by quantitative analysis of the β-galactosidase activity generated from an integrated LexA-dependent LacZ reporter gene.

[2] = Circular dichroism (CD) spectroscopy of SID peptides in TFE; type: physicochemical; details: for ability to adopt α-helical structure in TFE: increasing TFE concentrations (1, 20, 50%); for α-helical content: 50 μM peptide, 25° C.
Method: Circular Dichroism (CD) Spectroscopy—CD samples contained 50 μM of peptide, 1×phosphate-buffered saline, and the percentage of trifluoroethanol (TFE, Sigma) indicated in FIG. 4. CD spectra were collected on an Aviv 62DS spectrophotometer from 280 to 195 nm at 25° C. using a cell with a 0.1-cm pathlength. The reported spectra are the average of 15 consecutive runs. The observed ellipticity was converted to mean residue molar ellipticity [Θ] (deg cm^2 dmol^−1) using the relationship [Θ]=Θ/(Cr 1) where Θ is the observed ellipticity, 1 is the pathlength, and Cr is the mean residue molar concentration. Fractional helicities were calculated as described using values for [Θ]^0222 and [Θ]^100222, corresponding to 0% and 100% helical content at 222 nm, of −2000 and −28,400 deg cm^2 dmol^−1, respectively. Wu et al., Biochemistry 20:5766-570 (1981).
To test directly if the SID could adopt an α-helical structure, we measured the helical content of wild-type SID and mutant SID peptides using circular dichroism (CD) spectroscopy. […] Therefore, spectra for the wild-type and mutant SID peptides were measured in the solvent TFE, which is commonly used to stabilize α-helical conformation in peptides that have an inherent helical propensity. Sonnichsen et al., Biochemistry 31 :8790-8798 (1992), Jasanoff and Fersht, Biochemistry 33:2129-2135 (1994). […] At increasing TFE concentrations, the wild-type peptide adopts an α-helical structure as indicated by the strong negative peaks at 208 and 222 nm. In 20% TFE the SID is approximately 40% α-helical. This percentage increases to approximately 60% in 50% TFE.

“LexA fused to SID 8-20 Q10A/E14A/D17A (from UniProt P0A7C2 1-202)” showed a fold better binding than wild-type SID [1] of 2 fold.

For “GGGMNIQMPLEAPDYLE [L12P/A16P SID, same mutation also tested as LexA fusion in two-hybrid]”, the “interaction with PAH2 (relative β-galactosidase activity)” value (PAH2 domain of mSin3A) was “fails to interact with PAH2”, the “interaction with PAH2 (relative β-galactosidase activity)” value (PAH2 domain of mSin3A; listed as L12P/A16P) was “failed to interact with PAH2” and the “ability to adopt α-helical structure in TFE” value (“ability” below) [2] was “cannot adopt an α-helical structure”. The “ability” value ([2]; listed as L12P/A16P) was “remained unchanged with increasing concentrations of TFE” and the “ability” value ([2]; listed as double proline mutant SID peptide) was “incapable of α-helix formation”.

For “QLOR: minimal thirteen amino acid SID (8-20) with mutation at Gln-10, LexA fusion (NIRMLLEAADYLE; also: LexA fusion; UniProt Q05195 8-20, looked up, variant Q10R)”, the “reduction of binding to PAH2 relative to wild-type SID 8-20” value (PAH2 domain of mSin3A; yeast strain L40, fold reduced) was 4 fold.

With “Q10A: minimal SID 8-20 with single mutation Q10A, LexA fusion (NIAMLLEAADYLE; also: LexA fusion; UniProt Q05195 8-20, looked up, variant Q10A)” the “affinity for PAH2 relative to wild-type SID 8-20” value (PAH2 domain of mSin3A; yeast strain L40) was “approximately 2 fold”.

For “GGGMNIQMLLEDADYLE [A15D SID, same mutation also tested as LexA-SID 8-20 fusion]”, the “interaction with PAH2 (relative β-galactosidase activity)” value (PAH2 domain of mSin3A) was “unable to interact with PAH2”, the “interaction with PAH2 (relative β-galactosidase activity)” value (PAH2 domain of mSin3A; listed as A15E) was “fails to interact with PAH2” and the “interaction with PAH2 (relative β-galactosidase activity)” value (PAH2 domain of mSin3A; listed as Ala-15) was “severely impaired binding”. The “CD spectrum / helicity compared with wild-type SID” value ([2]; 50% TFE) was “slightly less helical than the wild-type SID”, the “reduction of helicity relative to wild-type” value ([2]; 50% TFE) was “approximately 40%” and the “ability” value [2] was “retain helical structure”. For the same molecule, the “ability” value ([2]; listed as A15E) was “retains helical structure”.

“LexA fused to SID 8-20 E14A (from UniProt P0A7C2 1-202)” gave a fold higher affinity than wild-type SID 8-20 (relative beta-galactosidase activity) [1] of 2 fold.

Molecule “LexA fused to SID 8-20 Q10A (from UniProt P0A7C2 1-202)” has a fold higher affinity than wild-type SID 8-20 (relative beta-galactosidase activity) [1] of 2 fold.

With “D17A: minimal SID 8-20 with single mutation D17A, LexA fusion (NIQMLLEAAAYLE; also: LexA fusion; UniProt Q05195 8-20, looked up, variant D17A)” the “affinity for PAH2 relative to wild-type SID 8-20” value (PAH2 domain of mSin3A; yeast strain L40) was “approximately 2 fold”.

For “GGGMNIQMLLEAADYDE [L19D SID, same mutation also tested as LexA-SID 8-20 fusion]”, the “interaction with PAH2 (relative β-galactosidase activity)” value (PAH2 domain of mSin3A) was “unable to interact with PAH2”, the “interaction with PAH2 (relative β-galactosidase activity)” value (PAH2 domain of mSin3A; listed as L19D) was “fails to interact with PAH2” and the “interaction with PAH2 (relative β-galactosidase activity)” value (PAH2 domain of mSin3A; listed as Leu-19) was “severely impaired binding”. The “CD spectrum / helicity compared with wild-type SID” value ([2]; 50% TFE) was “nearly identical to that collected for the wild-type SID”, the “reduction of helicity relative to wild-type” value ([2]; 50% TFE) was about 5% and the “ability” value [2] was “retain helical structure”. The “ability” value ([2]; listed as L19D) was “retains helical structure”.

“LexA fused to SID 8-20 Q10R (from UniProt P0A7C2 1-202)” showed a fold reduction of binding against wild-type SID 8-20 (relative beta-galactosidase activity) [1] of 4 fold.

In the case of “E14A: minimal SID 8-20 with single mutation E14A, LexA fusion (NIQMLLAAADYLE; also: LexA fusion; UniProt Q05195 8-20, looked up, variant E14A)”, the “affinity for PAH2 relative to wild-type SID 8-20” value (PAH2 domain of mSin3A; yeast strain L40) is reported as “approximately 2 fold”.

With “GGGMNIQMLLEAADYLE [wild-type SID peptide]” the α-helical content ([2]; 20% TFE) was “approximately 40%”, the α-helical content ([2]; 50% TFE) was “approximately 60%” and the secondary structure ([2]; aqueous solution containing 1% TFE) was “lacks secondary structure”. For the same molecule, the “ability” value [2] was “able to adopt an α-helical conformation”.

In the case of “Q10A/E14A/D17A: minimal SID 8-20 containing all three alanine mutations, LexA fusion (NIAMLLAAAAYLE; also: LexA fusion; UniProt Q05195 8-20, looked up, variant Q10A E14A D17A)”, the “affinity for PAH2 relative to wild-type SID 8-20” value (PAH2 domain of mSin3A; yeast strain L40) is reported as “two-fold”.

Molecule “LexA fused to SID 8-20 D17A (from UniProt P0A7C2 1-202)” has a fold higher affinity than wild-type SID 8-20 (relative beta-galactosidase activity) [1] of 2 fold.

In the case of “Tyr-18: minimal SID 8-20 with Tyr-18 mutated to aspartic acid, LexA fusion (NIQMLLEAADDLE; also: LexA fusion; UniProt Q05195 8-20, looked up, variant Y18D)”, the “interaction with PAH2 (relative β-galactosidase activity)” value (PAH2 domain of mSin3A) is reported as “severely impaired binding”.

B1: SID 1-57: LexA DNA binding domain fused to amino acids 1-57 of Mad1 (protein)
chain: MKALTARQQEVFDLIRDHISQTGMPPTRAEIAQRLGFRSPNAAEEHLKALARKGVIEIVSGASRGIRLLQEEEEGLPLVGRVAAGEPLLAQQHIEGHYQVDPSLFKPNADFLLRVSGMSMKDIGIMDGDLLAVHKTQDVRNGQVVVARIDDEVTVKRLKKQGNKVELLPENSEFKPIVVDLRQQSFTIEGLAVGVIRNGDWLMAAAVRMNIQMLLEAADYLERREREAEHGYASMLPYNNKDRDALKRRNKSKKNNSSS
With B1 the “interaction with PAH2 (relative β-galactosidase activity)” value (PAH2 domain of mSin3A) was “sufficient for interaction”.

B2: NIQMLLEAADYLE (protein)
chain: MKALTARQQEVFDLIRDHISQTGMPPTRAEIAQRLGFRSPNAAEEHLKALARKGVIEIVSGASRGIRLLQEEEEGLPLVGRVAAGEPLLAQQHIEGHYQVDPSLFKPNADFLLRVSGMSMKDIGIMDGDLLAVHKTQDVRNGQVVVARIDDEVTVKRLKKQGNKVELLPENSEFKPIVVDLRQQSFTIEGLAVGVIRNGDWLNIQMLLEAADYLE
For B2, the “interaction with PAH2 (relative β-galactosidase activity)” value (PAH2 domain of mSin3A) was “necessary and sufficient for interaction”.
